Results on two molecules are retold here after patent publication US20110178027A1 (SOCIETE DE COMMERCIALISATION DES PRODUITS DE LA RECHERCHE …, published 2011).

The term Ki denotes a dissociation constant, usually derived from enzyme kinetics or from competition with a known ligand. Read a high Ki as a looser hold on the target.

Values joined by “and” are separate entries in the source; they are usually repeats but may differ in a detail not shown here. Identical values can stand only once. No end group written: not given here.

Assay [1] deals with T1, PC4 (UniProt Q6UW60 114-708, limits assumed).
T1 sequence (looked up): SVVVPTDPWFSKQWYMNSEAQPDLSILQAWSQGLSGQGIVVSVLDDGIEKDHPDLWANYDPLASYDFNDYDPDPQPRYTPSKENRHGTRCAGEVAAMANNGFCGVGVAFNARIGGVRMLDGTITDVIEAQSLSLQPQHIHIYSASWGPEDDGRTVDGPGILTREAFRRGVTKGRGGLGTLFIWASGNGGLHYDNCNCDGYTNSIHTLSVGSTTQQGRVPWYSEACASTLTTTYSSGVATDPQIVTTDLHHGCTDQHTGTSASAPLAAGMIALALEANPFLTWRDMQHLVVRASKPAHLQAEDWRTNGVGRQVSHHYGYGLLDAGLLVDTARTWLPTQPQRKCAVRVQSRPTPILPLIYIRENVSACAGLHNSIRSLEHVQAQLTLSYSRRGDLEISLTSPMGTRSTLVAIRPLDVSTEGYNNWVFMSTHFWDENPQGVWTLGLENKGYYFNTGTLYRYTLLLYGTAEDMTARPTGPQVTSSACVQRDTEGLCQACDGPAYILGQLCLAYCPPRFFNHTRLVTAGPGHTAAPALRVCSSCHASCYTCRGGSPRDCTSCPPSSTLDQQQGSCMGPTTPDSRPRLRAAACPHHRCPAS
Kind of assay: enzyme inhibition assay, fluorogenic substrate PyrRTKR-MCA.
Procedure: (§1) Enzyme inhibition assays for furin (FIG. 5D) were performed in 100 mM Hepes pH 7.5, 1 mM CaCl₂, 1 mM β-mercaptoethanol, 0.5 μg/μL BSA. Assays for PC2 (FIG. 5E) were performed in 20 mM Bis-Tris pH 5.7, 1 mM CaCl₂, 0.1% Brij-30. Assays for PC1/3, PC4, PACE4, PC5/6 and PC7 (FIGS. 5F, G, A, B and C respectively) were performed in 20 mM Bis-T is pH 6.5, 1 mM CaCl₂. […] Inhibitory peptides were added to the enzymes at decreasing concentrations from 100 μM to 50 nM and incubated 5 minutes prior to the addition of substrate. […] Each Kᵢ value is the mean of 2 to 10 independent experiments.

The target of assay [2] is T2, PC1/3 (UniProt P29120 111-753, limits assumed).
T2 sequence (looked up): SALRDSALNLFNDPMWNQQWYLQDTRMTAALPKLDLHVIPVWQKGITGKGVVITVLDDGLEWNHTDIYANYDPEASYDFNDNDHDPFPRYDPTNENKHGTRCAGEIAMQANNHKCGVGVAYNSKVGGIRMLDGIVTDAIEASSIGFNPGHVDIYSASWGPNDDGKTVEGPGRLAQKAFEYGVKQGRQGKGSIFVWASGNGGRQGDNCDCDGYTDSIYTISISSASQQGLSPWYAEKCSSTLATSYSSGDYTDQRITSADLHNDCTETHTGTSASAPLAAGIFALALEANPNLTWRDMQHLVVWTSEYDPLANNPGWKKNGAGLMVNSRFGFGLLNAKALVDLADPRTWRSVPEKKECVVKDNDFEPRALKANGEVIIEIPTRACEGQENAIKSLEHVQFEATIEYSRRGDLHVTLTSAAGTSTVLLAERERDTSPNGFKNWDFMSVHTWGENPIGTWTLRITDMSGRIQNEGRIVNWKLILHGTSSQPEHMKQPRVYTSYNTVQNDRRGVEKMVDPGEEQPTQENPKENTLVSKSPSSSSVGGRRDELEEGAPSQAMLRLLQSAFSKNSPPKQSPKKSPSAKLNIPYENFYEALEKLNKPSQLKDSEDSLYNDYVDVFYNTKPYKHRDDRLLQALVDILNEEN
The description is as above.
Procedure: as §1

For assay [3], the target named is T3, PC2 (UniProt P16519 110-638, limits assumed).
T3 sequence (looked up): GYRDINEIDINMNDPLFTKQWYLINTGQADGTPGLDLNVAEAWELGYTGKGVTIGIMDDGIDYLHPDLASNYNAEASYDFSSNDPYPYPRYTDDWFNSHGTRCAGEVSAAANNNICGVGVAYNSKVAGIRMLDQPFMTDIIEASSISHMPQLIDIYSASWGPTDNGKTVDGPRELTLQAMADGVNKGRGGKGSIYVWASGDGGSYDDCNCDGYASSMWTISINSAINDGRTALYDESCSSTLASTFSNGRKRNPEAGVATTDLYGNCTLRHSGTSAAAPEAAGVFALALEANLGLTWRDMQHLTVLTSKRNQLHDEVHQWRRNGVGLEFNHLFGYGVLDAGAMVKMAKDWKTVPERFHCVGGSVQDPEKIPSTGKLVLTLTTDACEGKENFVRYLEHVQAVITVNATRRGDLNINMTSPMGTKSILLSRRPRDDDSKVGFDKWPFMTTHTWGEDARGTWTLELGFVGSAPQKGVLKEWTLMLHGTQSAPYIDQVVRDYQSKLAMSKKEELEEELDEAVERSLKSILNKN
Described as above.
Procedure: as §1

For assay [4], the target named is T4, PC5/6 (UniProt Q92824-2 115-913, limits assumed).
T4 sequence (looked up): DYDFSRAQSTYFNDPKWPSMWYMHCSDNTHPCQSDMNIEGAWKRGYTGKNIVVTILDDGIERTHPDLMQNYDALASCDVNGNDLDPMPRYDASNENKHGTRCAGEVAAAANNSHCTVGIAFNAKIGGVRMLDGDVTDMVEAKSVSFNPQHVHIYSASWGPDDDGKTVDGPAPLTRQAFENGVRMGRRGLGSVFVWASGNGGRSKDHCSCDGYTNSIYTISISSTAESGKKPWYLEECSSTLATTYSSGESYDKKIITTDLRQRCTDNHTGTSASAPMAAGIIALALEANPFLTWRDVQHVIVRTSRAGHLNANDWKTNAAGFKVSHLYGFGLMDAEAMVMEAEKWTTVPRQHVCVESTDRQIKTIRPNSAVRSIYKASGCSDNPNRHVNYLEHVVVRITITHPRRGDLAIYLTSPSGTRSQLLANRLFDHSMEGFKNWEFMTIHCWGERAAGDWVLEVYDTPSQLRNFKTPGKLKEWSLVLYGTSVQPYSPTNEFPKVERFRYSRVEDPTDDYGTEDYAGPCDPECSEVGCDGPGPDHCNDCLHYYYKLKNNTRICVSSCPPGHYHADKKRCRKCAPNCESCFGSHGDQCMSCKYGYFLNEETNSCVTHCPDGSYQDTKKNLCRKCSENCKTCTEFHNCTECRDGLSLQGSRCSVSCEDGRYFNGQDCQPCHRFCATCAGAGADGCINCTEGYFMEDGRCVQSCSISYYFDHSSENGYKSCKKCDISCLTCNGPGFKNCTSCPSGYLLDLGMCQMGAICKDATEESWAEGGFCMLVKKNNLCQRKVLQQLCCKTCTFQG
Described as above.
Procedure: as §1

In assay [5] the target is T5, PC7 (UniProt Q16549 142-667, limits assumed).
T5 sequence (looked up): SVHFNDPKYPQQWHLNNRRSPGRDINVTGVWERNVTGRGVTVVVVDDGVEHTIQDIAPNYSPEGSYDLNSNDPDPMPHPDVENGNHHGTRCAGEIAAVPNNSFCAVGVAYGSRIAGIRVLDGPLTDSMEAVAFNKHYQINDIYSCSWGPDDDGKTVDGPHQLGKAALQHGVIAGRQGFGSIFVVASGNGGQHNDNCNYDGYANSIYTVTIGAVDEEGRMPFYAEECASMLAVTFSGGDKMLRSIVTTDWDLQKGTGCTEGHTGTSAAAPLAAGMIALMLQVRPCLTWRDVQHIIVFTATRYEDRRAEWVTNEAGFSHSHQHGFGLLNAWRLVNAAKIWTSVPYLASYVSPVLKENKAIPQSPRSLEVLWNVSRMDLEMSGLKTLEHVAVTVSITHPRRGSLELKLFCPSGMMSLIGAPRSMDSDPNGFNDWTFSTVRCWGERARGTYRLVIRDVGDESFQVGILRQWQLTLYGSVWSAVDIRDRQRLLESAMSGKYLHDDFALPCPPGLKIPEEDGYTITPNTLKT
The description is as above.
Procedure: as §1

For assay [6], the target named is T6, PACE4 (UniProt P29122 150-969, limits assumed).
T6 sequence (looked up): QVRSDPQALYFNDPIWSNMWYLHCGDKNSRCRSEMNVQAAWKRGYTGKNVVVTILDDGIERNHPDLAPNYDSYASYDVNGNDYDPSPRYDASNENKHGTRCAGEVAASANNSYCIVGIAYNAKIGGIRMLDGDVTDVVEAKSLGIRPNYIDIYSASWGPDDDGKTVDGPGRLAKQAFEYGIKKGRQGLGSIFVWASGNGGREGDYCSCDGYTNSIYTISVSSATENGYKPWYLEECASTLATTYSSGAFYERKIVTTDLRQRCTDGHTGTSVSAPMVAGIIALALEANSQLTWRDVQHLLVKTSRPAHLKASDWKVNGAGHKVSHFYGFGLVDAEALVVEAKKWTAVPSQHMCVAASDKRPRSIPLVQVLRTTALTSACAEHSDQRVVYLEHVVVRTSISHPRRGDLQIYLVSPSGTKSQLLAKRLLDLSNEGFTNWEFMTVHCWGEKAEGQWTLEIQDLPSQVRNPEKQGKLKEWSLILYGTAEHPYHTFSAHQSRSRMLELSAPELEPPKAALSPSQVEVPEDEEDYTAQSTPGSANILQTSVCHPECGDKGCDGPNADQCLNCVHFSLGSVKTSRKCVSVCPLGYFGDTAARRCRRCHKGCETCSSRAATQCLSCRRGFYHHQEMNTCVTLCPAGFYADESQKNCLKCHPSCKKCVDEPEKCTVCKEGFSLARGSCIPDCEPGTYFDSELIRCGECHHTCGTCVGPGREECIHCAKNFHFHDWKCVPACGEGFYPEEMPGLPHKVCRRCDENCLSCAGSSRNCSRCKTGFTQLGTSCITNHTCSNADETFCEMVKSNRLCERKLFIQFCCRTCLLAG
Described as above.
Procedure: as §1

In assay [7] the target is furin (UniProt P09958 108-715, limits assumed). Described as above.
Procedure: as §1
Assay [8] has as its target T6, PACE4. Kind of assay: enzyme inhibition assay, ratio of Ki values against the other PCs.
Procedure: as §1

Sequence of furin (P09958 108-715 limits assumed): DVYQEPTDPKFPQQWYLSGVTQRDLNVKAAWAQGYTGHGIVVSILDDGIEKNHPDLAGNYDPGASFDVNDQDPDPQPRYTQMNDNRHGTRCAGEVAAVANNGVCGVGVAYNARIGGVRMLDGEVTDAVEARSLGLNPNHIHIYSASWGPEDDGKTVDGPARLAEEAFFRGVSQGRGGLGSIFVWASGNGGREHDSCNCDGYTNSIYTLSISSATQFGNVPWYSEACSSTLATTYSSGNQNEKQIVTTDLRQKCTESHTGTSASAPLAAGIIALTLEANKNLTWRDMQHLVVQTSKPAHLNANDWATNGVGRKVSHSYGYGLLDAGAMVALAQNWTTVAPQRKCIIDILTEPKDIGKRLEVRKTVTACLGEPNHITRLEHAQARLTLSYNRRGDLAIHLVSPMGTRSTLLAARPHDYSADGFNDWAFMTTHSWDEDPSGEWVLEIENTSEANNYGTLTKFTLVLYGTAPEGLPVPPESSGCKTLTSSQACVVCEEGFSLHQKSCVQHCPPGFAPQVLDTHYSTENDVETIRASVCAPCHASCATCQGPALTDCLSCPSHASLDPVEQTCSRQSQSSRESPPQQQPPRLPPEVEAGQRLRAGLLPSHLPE

B1: LLLLLRVKR-NH2 (peptide)
peptide: LLLLLRVKR-NH2
notes: also called 5 Leu; multi-leucine peptide containing five leucines
The molecule B1 came in with a Ki in assay [1] of 164 nM.
With LLLLRVKR-NH2 (also called 4 Leu; Multi-Leu (ML)) [LLLLRVKR-NH2], the Ki in assay [2] was 454 nM; in assay [3] it was 18.8 µM; in assay [1] it was 205 nM; in assay [4] it was 245 nM; in assay [5] it was 54 nM and 50 nM; in assay [6], 6 nM and 5.5 nM and 5 nM. In assay [7], this molecule displayed a Ki of 114 nM. In addition, the “fold more effective on PACE4 than the other PCs” value in assay [8] was no less than 9 fold.
